# Patent US20220133733A1 (Bicycle, published 2022)
# Read-outs that look alike come from different tables or passages of the source. Starred links: 1 amine or outer side, 2 acyl side, 3 side chain; linkers in the order of their positions; H or OH if unused. Positions of bridges follow the written chain, without caps; N, C: chain ends. No end group written: not given here. TBMB = c1c(C[*:1])cc(C[*:3])cc1C[*:2]
# T1: human CD38 (human, UniProt P28907 43-300, limits assumed)
# T1 construct: also called hCD38
# T1 sequence (looked up): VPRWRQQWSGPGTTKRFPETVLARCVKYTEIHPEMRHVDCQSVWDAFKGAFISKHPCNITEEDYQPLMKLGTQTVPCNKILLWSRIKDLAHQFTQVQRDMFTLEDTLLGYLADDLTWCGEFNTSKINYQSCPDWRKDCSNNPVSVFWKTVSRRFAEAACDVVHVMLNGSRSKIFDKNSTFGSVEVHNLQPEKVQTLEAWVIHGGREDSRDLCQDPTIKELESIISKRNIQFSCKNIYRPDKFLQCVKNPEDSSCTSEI
# B1: BT66BDC-1 (peptide)
# peptide: XXXXXXXXXXXACVPCADFPIWYC
# modifications: DM1 toxin conjugated to the peptide through a linker shown only in the drawing of formula (I); N-terminal beta-alanine followed by ten sarcosines (Sar10); Ci, Cii and Ciii bound to TBMB scaffold
# notes: The attachment site and linker stand only in drawings; also called BDC of formula (I)
# Legend:
# human CD38 [1] = target: T1, human CD38; assay: fluorescence polarisation competition, tracer …-Sar6-K(Fl)
# human CD38 [2] = target: T1, human CD38; assay: as above; remark: listed apart in the source
Binder,Ki (human CD38 [1]),Ki (human CD38 [2])
B1,144 nM,
ACFTLDGECFLLGENCA (linker 2-9-16 via TBMB (inferred)) [66-08-52-N001],,562 nM
